Measurements taken from US20130225506A1 (POLYPHOR, published 2013).
Numbered stars: 1 amine (or outer) side, 2 acyl side, 3 side chain; on linkers, the order of the positions; unused ones are H or OH. Square brackets hold non-standard residues; d marks the D form. Primed or numbered codes have the meaning given here. Pro((4S)NHBz) = proline with (4S)-NHBz, O=C(N[C@H]1C[C@@H](C(=O)[*:2])N([*:1])C1)c1ccccc1; (4S)Hyp(Bn) = O=C([C@@H]1C[C@H](OCc2ccccc2)CN1[*:1])[*:2]; dPro(cis-4-NH2) = N[C@H]1CN[C@@H](C(=O)O)C1; dPro(4S-NH2) = N[C@@H]1CN[C@@H](C(=O)O)C1; Oic = O=C(O)[C@@H]1C[C@@H]2CCCC[C@@H]2N1; 1Nal = N[C@@H](Cc1cccc2ccccc12)C(=O)O; 2Nal = N[C@@H](Cc1ccc2ccccc2c1)C(=O)O; Pro(3S-OH) = O=C(O)[C@H]1NCC[C@@H]1O; hArg = N=C(N)NCCCC[C@H](N)C(=O)O; 3Pal = N[C@@H](Cc1cccnc1)C(=O)O; Tic = O=C(O)[C@@H]1Cc2ccccc2CN1; d3Pal = N[C@H](Cc1cccnc1)C(=O)O; dHyp = O=C(O)[C@H]1C[C@H](O)CN1; Agb = N=C(N)NCC[C@H](N)C(=O)O; Chg = N[C@H](C(=O)O)C1CCCCC1; dDab = NCC[C@@H](N)C(=O)O; dPip′ = not defined here; Dab = NCC[C@H](N)C(=O)O; Pip′ = not defined here; Abu = CC[C@H](N)C(=O)O; Mor = not defined here

Biological target: chemokine receptor CXCR7 (UniProt P25106 1-362, limits assumed)
Experiment: cell-based or functional assay

chemokine receptor CXCR7, sequence (P25106 whole entry): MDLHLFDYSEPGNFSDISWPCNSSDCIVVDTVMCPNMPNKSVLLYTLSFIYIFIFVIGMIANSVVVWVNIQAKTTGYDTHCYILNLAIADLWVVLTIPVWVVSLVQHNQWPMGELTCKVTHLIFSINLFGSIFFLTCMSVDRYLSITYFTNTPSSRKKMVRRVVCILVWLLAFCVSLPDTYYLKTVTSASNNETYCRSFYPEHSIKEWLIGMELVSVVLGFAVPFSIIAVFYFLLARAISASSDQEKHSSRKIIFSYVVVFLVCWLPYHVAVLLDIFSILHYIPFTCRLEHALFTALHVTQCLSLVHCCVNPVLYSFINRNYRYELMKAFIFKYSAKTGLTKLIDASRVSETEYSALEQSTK

B1: cyclo(-Val-^DArg-Arg-Trp-^DPro-Thr-) (peptide)
peptide: cyclo(V[dR]RW[dP]T)
SMILES: CC(C)[C@@H]1NC(=O)[C@H]([C@@H](C)O)NC(=O)[C@H]2CCCN2C(=O)[C@H](Cc2c[nH]c3ccccc23)NC(=O)[C@H](CCCNC(=N)N)NC(=O)[C@@H](CCCNC(=N)N)NC1=O
β-Arrestin EC50: 271 nM

cyclo(I[dR]RW[dPip′][Pro(3S-OH)]) [cyclo(-Ile-^DArg-Arg-Trp-^DPip-Pro((3S)OH)-)]
β-Arrestin EC50: 8.2 nM

B2: cyclo(-hArg-^DPhe-Trp-Arg-^DPro((4R)NH2)-Tic-) (peptide)
peptide: cyclo([hArg][dF]WR[dPro(cis-4-NH2)][Tic])
SMILES: N=C(N)NCCCC[C@@H]1NC(=O)[C@@H]2Cc3ccccc3CN2C(=O)[C@H]2C[C@@H](N)CN2C(=O)[C@H](CCCNC(=N)N)NC(=O)[C@H](Cc2c[nH]c3ccccc23)NC(=O)[C@@H](Cc2ccccc2)NC1=O
β-Arrestin EC50: 12.2 nM

B3: cyclo(-Arg-^DPhe-Trp-hArg-^DPro((4R)NH2)-Tic-) (peptide)
peptide: cyclo(R[dF]W[hArg][dPro(cis-4-NH2)][Tic])
SMILES: N=C(N)NCCCC[C@@H]1NC(=O)[C@H](Cc2c[nH]c3ccccc23)NC(=O)[C@@H](Cc2ccccc2)NC(=O)[C@H](CCCNC(=N)N)NC(=O)[C@@H]2Cc3ccccc3CN2C(=O)[C@H]2C[C@@H](N)CN2C1=O
β-Arrestin EC50: 352 nM

B4: cyclo(-Arg-^DPhe-Trp-Arg-^DPro((4R)NH2)-Oic-) (peptide)
peptide: cyclo(R[dF]WR[dPro(cis-4-NH2)][Oic])
SMILES: N=C(N)NCCC[C@@H]1NC(=O)[C@@H]2C[C@@H]3CCCC[C@@H]3N2C(=O)[C@H]2C[C@@H](N)CN2C(=O)[C@H](CCCNC(=N)N)NC(=O)[C@H](Cc2c[nH]c3ccccc23)NC(=O)[C@@H](Cc2ccccc2)NC1=O
β-Arrestin EC50: 20.5 nM

B5: cyclo(-Arg-^DPhe-Trp-Arg-^DPro((4R)NH2)-Tic-) (peptide)
peptide: cyclo(R[dF]WR[dPro(cis-4-NH2)][Tic])
SMILES: N=C(N)NCCC[C@@H]1NC(=O)[C@@H]2Cc3ccccc3CN2C(=O)[C@H]2C[C@@H](N)CN2C(=O)[C@H](CCCNC(=N)N)NC(=O)[C@H](Cc2c[nH]c3ccccc23)NC(=O)[C@@H](Cc2ccccc2)NC1=O
β-Arrestin EC50: 248 nM

B6: cyclo(-Chg-^DArg-Arg-Trp-^DPro-Thr-) (peptide)
peptide: cyclo([Chg][dR]RW[dP]T)
SMILES: C[C@@H](O)[C@@H]1NC(=O)[C@H]2CCCN2C(=O)[C@H](Cc2c[nH]c3ccccc23)NC(=O)[C@H](CCCNC(=N)N)NC(=O)[C@@H](CCCNC(=N)N)NC(=O)[C@H](C2CCCCC2)NC1=O
β-Arrestin EC50: 6.7 nM

cyclo(W[dF]WR[dP][Pro((4R)NH2)]) [cyclo(-Trp-^DPhe-Trp-Arg-^DPro-Pro((4R)NH2)-)]
β-Arrestin EC50: 26.9 nM

B7: cyclo(-His-^DTrp-His-Trp-^DPro-Pro((4S)NHBz)-) (peptide)
peptide: cyclo(H[dW]HW[dP][Pro((4S)NHBz)])
SMILES: O=C(N[C@H]1C[C@H]2C(=O)N[C@@H](Cc3c[nH]cn3)C(=O)N[C@H](Cc3c[nH]c4ccccc34)C(=O)N[C@@H](Cc3c[nH]cn3)C(=O)N[C@@H](Cc3c[nH]c4ccccc34)C(=O)N3CCC[C@@H]3C(=O)N2C1)c1ccccc1
β-Arrestin EC50: 414 nM

B8: cyclo(-Agb-^DPhe-Trp-Arg-^DPro((4R)NH2)-Tic-) (peptide)
peptide: cyclo([Agb][dF]WR[dPro(cis-4-NH2)][Tic])
SMILES: N=C(N)NCCC[C@@H]1NC(=O)[C@H](Cc2c[nH]c3ccccc23)NC(=O)[C@@H](Cc2ccccc2)NC(=O)[C@H](CCNC(=N)N)NC(=O)[C@@H]2Cc3ccccc3CN2C(=O)[C@H]2C[C@@H](N)CN2C1=O
β-Arrestin EC50: 452 nM

B9: cyclo(-1Nal-^DArg-Arg-Trp-^DPro-Pro((3S)OH)-) (peptide)
peptide: cyclo([1Nal][dR]RW[dP][Pro(3S-OH)])
SMILES: N=C(N)NCCC[C@@H]1NC(=O)[C@@H](CCCNC(=N)N)NC(=O)[C@H](Cc2cccc3ccccc23)NC(=O)[C@@H]2[C@@H](O)CCN2C(=O)[C@H]2CCCN2C(=O)[C@H](Cc2c[nH]c3ccccc23)NC1=O
β-Arrestin EC50: 13.7 nM

B10: cyclo(-Trp-^DPhe-Trp-Arg-^DPro((4R)NH2)-Oic-) (peptide)
peptide: cyclo(W[dF]WR[dPro(cis-4-NH2)][Oic])
SMILES: N=C(N)NCCC[C@@H]1NC(=O)[C@H](Cc2c[nH]c3ccccc23)NC(=O)[C@@H](Cc2ccccc2)NC(=O)[C@H](Cc2c[nH]c3ccccc23)NC(=O)[C@@H]2C[C@@H]3CCCC[C@@H]3N2C(=O)[C@H]2C[C@@H](N)CN2C1=O
β-Arrestin EC50: 20.9 nM

B11: cyclo(-3Pal-^DPhe-Trp-Arg-^DPro((4R)NH2)-Tic-) (peptide)
peptide: cyclo([3Pal][dF]WR[dPro(cis-4-NH2)][Tic])
SMILES: N=C(N)NCCC[C@@H]1NC(=O)[C@H](Cc2c[nH]c3ccccc23)NC(=O)[C@@H](Cc2ccccc2)NC(=O)[C@H](Cc2cccnc2)NC(=O)[C@@H]2Cc3ccccc3CN2C(=O)[C@H]2C[C@@H](N)CN2C1=O
β-Arrestin EC50: 5.1 nM

cyclo(I[dR]RW[dHyp]T) (not fully specified) [cyclo(-Ile-^DArg-Arg-Trp-^DPro((4S)OH)-Thr-)]
β-Arrestin EC50: 632 nM

B12: cyclo(-Arg-^DPhe-Trp-Arg-^DPro((4S)NH2)-Tic-) (peptide)
peptide: cyclo(R[dF]WR[dPro(4S-NH2)][Tic])
SMILES: N=C(N)NCCC[C@@H]1NC(=O)[C@@H]2Cc3ccccc3CN2C(=O)[C@H]2C[C@H](N)CN2C(=O)[C@H](CCCNC(=N)N)NC(=O)[C@H](Cc2c[nH]c3ccccc23)NC(=O)[C@@H](Cc2ccccc2)NC1=O
β-Arrestin EC50: 13.1 nM

cyclo(W[dF]WR[dP][Mor]) (reading uncertain; also: printed as cyclo(-Trp-^DPhe-Trp-Arg-^DPro-Mor-)) [cyclo(-Trp-^DPhe-Trp-Arg-^DPro-Mor-)]
β-Arrestin EC50: 132 nM

B13: cyclo(-Ile-^DArg-Arg-2Nal-^DPro-Pro((3S)OH)-) (peptide)
peptide: cyclo(I[dR]R[2Nal][dP][Pro(3S-OH)])
SMILES: CC[C@H](C)[C@@H]1NC(=O)[C@@H]2[C@@H](O)CCN2C(=O)[C@H]2CCCN2C(=O)[C@H](Cc2ccc3ccccc3c2)NC(=O)[C@H](CCCNC(=N)N)NC(=O)[C@@H](CCCNC(=N)N)NC1=O
β-Arrestin EC50: 76.8 nM

B14: cyclo(-Trp-^DPhe-Trp-Arg-^DPro((4S)OH)-(4S)-Hyp(Bn)-) (peptide)
peptide: cyclo(W[dF]WR[dHyp][(4S)Hyp(Bn)])
SMILES: N=C(N)NCCC[C@@H]1NC(=O)[C@H](Cc2c[nH]c3ccccc23)NC(=O)[C@@H](Cc2ccccc2)NC(=O)[C@H](Cc2c[nH]c3ccccc23)NC(=O)[C@@H]2C[C@H](OCc3ccccc3)CN2C(=O)[C@H]2C[C@H](O)CN2C1=O
β-Arrestin EC50: 7.6 nM

cyclo([Pip′][dF]WR[dPro(cis-4-NH2)][Tic]) [cyclo(-Pip-^DPhe-Trp-Arg-^DPro((4R)NH2)-Tic-)]
β-Arrestin EC50: 882 nM

B15: cyclo(-Abu-^DArg-Arg-Trp-^DPro-Thr-) (peptide)
peptide: cyclo([Abu][dR]RW[dP]T)
SMILES: CC[C@@H]1NC(=O)[C@H]([C@@H](C)O)NC(=O)[C@H]2CCCN2C(=O)[C@H](Cc2c[nH]c3ccccc23)NC(=O)[C@H](CCCNC(=N)N)NC(=O)[C@@H](CCCNC(=N)N)NC1=O
β-Arrestin EC50: 330 nM

B16: cyclo(-Ile-^DArg-Dab-Trp-^DPro-Thr-) (peptide)
peptide: cyclo(I[dR][Dab]W[dP]T)
SMILES: CC[C@H](C)[C@@H]1NC(=O)[C@H]([C@@H](C)O)NC(=O)[C@H]2CCCN2C(=O)[C@H](Cc2c[nH]c3ccccc23)NC(=O)[C@H](CCN)NC(=O)[C@@H](CCCNC(=N)N)NC1=O
β-Arrestin EC50: 87 nM

cyclo(W[dF]WR[dP][Pro((4S)F)]) [cyclo(-Trp-^DPhe-Trp-Arg-^DPro-Pro((4S)F)-)]
β-Arrestin EC50: 119 nM

B17: cyclo(-Ile-^DArg-Arg-Trp-^DPro((4R)NH2)-Thr-) (peptide)
peptide: cyclo(I[dR]RW[dPro(cis-4-NH2)]T)
SMILES: CC[C@H](C)[C@@H]1NC(=O)[C@H]([C@@H](C)O)NC(=O)[C@H]2C[C@@H](N)CN2C(=O)[C@H](Cc2c[nH]c3ccccc23)NC(=O)[C@H](CCCNC(=N)N)NC(=O)[C@@H](CCCNC(=N)N)NC1=O
β-Arrestin EC50: 948 nM

B18: cyclo(-Trp-^D3Pal-Trp-Arg-^DPro((4R)NH2)-Tic-) (peptide)
peptide: cyclo(W[d3Pal]WR[dPro(cis-4-NH2)][Tic])
SMILES: N=C(N)NCCC[C@@H]1NC(=O)[C@H](Cc2c[nH]c3ccccc23)NC(=O)[C@@H](Cc2cccnc2)NC(=O)[C@H](Cc2c[nH]c3ccccc23)NC(=O)[C@@H]2Cc3ccccc3CN2C(=O)[C@H]2C[C@@H](N)CN2C1=O
β-Arrestin EC50: 6.1 nM

B19: cyclo(-Ile-^DDab-Arg-Trp-^DPro-Thr-) (peptide)
peptide: cyclo(I[dDab]RW[dP]T)
SMILES: CC[C@H](C)[C@@H]1NC(=O)[C@H]([C@@H](C)O)NC(=O)[C@H]2CCCN2C(=O)[C@H](Cc2c[nH]c3ccccc23)NC(=O)[C@H](CCCNC(=N)N)NC(=O)[C@@H](CCN)NC1=O
β-Arrestin EC50: 48.4 nM

B20: cyclo(-Trp-^DPhe-Trp-Arg-^DPro((4R)NH2)-(4S)-Hyp(Bn)-) (peptide)
peptide: cyclo(W[dF]WR[dPro(cis-4-NH2)][(4S)Hyp(Bn)])
SMILES: N=C(N)NCCC[C@@H]1NC(=O)[C@H](Cc2c[nH]c3ccccc23)NC(=O)[C@@H](Cc2ccccc2)NC(=O)[C@H](Cc2c[nH]c3ccccc23)NC(=O)[C@@H]2C[C@H](OCc3ccccc3)CN2C(=O)[C@H]2C[C@@H](N)CN2C1=O
β-Arrestin EC50: 6.6 nM

B21: cyclo(-Arg-^DPhe-Trp-Arg-^DPro-(4S)-Hyp(Bn)-) (peptide)
peptide: cyclo(R[dF]WR[dP][(4S)Hyp(Bn)])
SMILES: N=C(N)NCCC[C@@H]1NC(=O)[C@@H]2C[C@H](OCc3ccccc3)CN2C(=O)[C@H]2CCCN2C(=O)[C@H](CCCNC(=N)N)NC(=O)[C@H](Cc2c[nH]c3ccccc23)NC(=O)[C@@H](Cc2ccccc2)NC1=O
β-Arrestin EC50: 76.9 nM

cyclo(W[dF]WR[dP][Pro((4S)NH2)]) [cyclo(-Trp-^DPhe-Trp-Arg-^DPro-Pro((4S)NH2)-)]
β-Arrestin EC50: 36.9 nM
